For assay [1], the target named is T1, Fc-tagged extracellular domain (ECD) of the recombinant human EGFR (rhEGFR) (human, UniProt P00533 25-645).
T1 construct: extracellular domain; also called rhEGFR-ECD; rhEGFR-ECD-Fc; not shown: Fc tag of the bought protein (R&D 344-ER)
As to the kind of experiment: ELISA: biotinylated EGF on immobilized EGFR, with or without pre-incubation with unlabeled EGF. (ELISA stands for enzyme-linked immunosorbent assay.)

Assay [2] concerns the target T2, Fc-tagged ECD of ErbB2 (ErbB family member, R&D 1129-ER) (human, UniProt P04626 23-652).
T2 construct: extracellular domain; not shown: Fc tag of the bought protein
As to the kind of experiment: ELISA on immobilized Fc-tagged ErbB ECDs.

Assay [3] deals with T3, Fc-tagged ECD of ErbB3 (R&D 348-RB) (human, UniProt P21860 20-643).
T3 construct: extracellular domain; also called ErbB family member; not shown: Fc tag of the bought protein
Briefly: ELISA on immobilized Fc-tagged ErbB ECDs.

Assay [4] deals with T4, Fc-tagged ECD of ErbB4 (ErbB family member, R&D 1131-ER) (human, UniProt Q15303 26-651).
T4 construct: extracellular domain; not shown: Fc tag of the bought protein
T4 sequence (looked up): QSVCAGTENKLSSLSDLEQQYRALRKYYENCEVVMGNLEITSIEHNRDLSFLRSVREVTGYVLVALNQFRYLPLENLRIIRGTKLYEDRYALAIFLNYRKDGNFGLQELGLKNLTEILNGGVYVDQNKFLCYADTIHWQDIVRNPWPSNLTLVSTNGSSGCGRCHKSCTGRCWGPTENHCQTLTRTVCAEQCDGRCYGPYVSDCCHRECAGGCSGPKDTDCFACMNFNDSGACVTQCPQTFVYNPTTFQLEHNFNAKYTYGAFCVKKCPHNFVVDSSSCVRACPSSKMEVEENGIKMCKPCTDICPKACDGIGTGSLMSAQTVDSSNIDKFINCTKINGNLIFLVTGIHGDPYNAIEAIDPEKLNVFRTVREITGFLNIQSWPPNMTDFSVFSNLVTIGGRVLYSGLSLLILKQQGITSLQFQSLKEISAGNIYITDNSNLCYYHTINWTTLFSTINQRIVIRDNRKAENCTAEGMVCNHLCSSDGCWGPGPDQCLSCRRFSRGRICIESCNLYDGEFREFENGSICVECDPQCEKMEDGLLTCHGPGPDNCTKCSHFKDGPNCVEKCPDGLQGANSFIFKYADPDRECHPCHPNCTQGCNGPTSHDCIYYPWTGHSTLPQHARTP
As to the kind of experiment: ELISA on immobilized Fc-tagged ErbB ECDs.

The target in assay [5] is T5, EGFR-D28 on HEK293F cells (UniProt P00533 25-1210).
T5 construct: whole, on cells; also called EGFR-28; not shown: C-terminal GFP of the parent EGFR-GFP construct
As to the kind of experiment: flow cytometry dose response on transfected HEK293F cells. In general terms: In flow cytometry, cells or beads pass a laser one at a time.

The target in assay [6] is T6, EGFR-DM (Y251A/R285S) on HEK293F cells (UniProt P00533 25-1210).
T6 construct: whole, on cells; not shown: C-terminal GFP of the parent EGFR-GFP construct
Described as above.

Assay [7] concerns the target T7, full-length EGFR with a C-terminal GFP fusion (EGFR-GFP) on HEK293F cells (UniProt P00533 25-1210).
T7 construct: whole, on cells; also called EGFR (HEK293F transfected); not shown: C-terminal GFP fusion
Briefly: flow cytometry dose response on EGFR-293F cells.

For assay [8], the target named is T8, cell-surface EGFR (endogenous on A431, MDA-MB-231 and other cancer cell lines); pBABE-EGFR transfected 293T … (UniProt P00533 25-1210, limits assumed).
T8 construct: whole, on cells; Untagged EGFR on cells; also called endogenous cell-surface EGFR; EGFR1
Briefly: flow cytometry dose response on A431 cells, without EGF.

Assay [9] addresses T7, full-length EGFR with a C-terminal GFP …. As to the kind of experiment: flow cytometry on HEK293F cells transiently expressing EGFR.
Assay [10] deals with T1, Fc-tagged extracellular domain (ECD) of …. Briefly: biolayer interferometry, Fab immobilized, rhEGFR-ECD-Fc in solution, 1:1 model. A general note: Biolayer interferometry detects binding as a change in optical thickness at a sensor tip.
Assay [11] has as its target T6, EGFR-DM (Y251A/R285S) on HEK293F cells. As to the kind of experiment: flow cytometry on HEK293F cells transiently expressing EGFR-DM.
Assay [12] deals with T5, EGFR-D28 on HEK293F cells. As to the kind of experiment: flow cytometry on HEK293F cells transiently expressing EGFR-D28.
In assay [13] the target is T8, cell-surface EGFR (endogenous on A431, …). As to the kind of experiment: flow cytometry dose response on A431 cells after incubation with 10 nM EGF.
In assay [14] the target is T1, Fc-tagged extracellular domain (ECD) of …. Briefly: biolayer interferometry, Fab immobilized, rhEGFR in solution, 1:1 global fit.
Assay [15] addresses T9, EGFR fragment D3-D4 on HEK293F cells (UniProt P00533 334-645, limits assumed).
T9 construct: domain: D3-D4
As to the kind of experiment: flow cytometry heat map of relative binding, 293F cells expressing EGFR EC domains.

Assay [16] concerns the target T10, EGFR fragment D2-D3-D4 on HEK293F cells (UniProt P00533 190-645, limits assumed).
T10 construct: domain: D2-D3-D4
The description is as above.

The target in assay [17] is T11, EGFR-vIII on HEK293F cells (UniProt P00533 25-1210).
T11 construct: whole, on cells
As to the kind of experiment: flow cytometry, HEK293F cells transiently expressing EGFR-vIII against cells expressing GFP.

Assay [18] has as its target T1, Fc-tagged extracellular domain (ECD) of …. As to the kind of experiment: competitive phage ELISA with soluble rhEGFR as competitor, phage-displayed Fab.
For assay [19] the target is unchanged. Briefly: competitive phage ELISA with soluble rhEGFR as competitor, phage-displayed Fab; affinity-matured clone Fab 8708.
The target is the same in assay [20]. Briefly: multi-point competitive ELISA: soluble EGFR competes with immobilized EGFR for Clone 23.
Assay [21] shares this target. As to the kind of experiment: multi-point competitive ELISA: soluble EGFR competes with immobilized EGFR for Clone 24.

Substitutions are numbered along the chain they refer to.

The text below walks through data of patent US20200087405A1 (UNIVERSITY OF SASKATCHEWAN, published 2020).

B1: Recombinant EGF ligand (ligand, UniProt P01133 971-1023, looked up)
chain: NSDSECPLSHDGYCLHDGVCMYIEALDKYACNCVVGYIGERCQYRDLKWWELR
modifications: biotinylated with the N-hydroxysuccinimide ester of biotin in the ligand binding ELISA
notes: also called biotinylated EGF
Take B1: the binding result in assay [1] is on record as “binds”.

B2: Fab 8709 (Fab H) (Fab)
heavy: EVQLVESGGGLVQPGGSLRLSCAASGFNLYSSSMHWVRQAPGKGLEWVASIYPYSGYTYYADSVKGRFTISADTSKNTAYLQMNSLRAEDTAVYYCARYPFGVSAYYAMDYWGQGTLVTVSSASTKGPSVFPLAPSSKSTSGGTAALGCLVKDYFPEPVTVSWNSGALTSGVHTFPAVLQSSGLYSLSSVVTVPSSSLGTQTYICNVNHKPSNTKVDKKVEPKSCDKTHT
light: DIQMTQSPSSLSASVGDRVTITCRASQSVSSAVAWYQQKPGKAPKLLIYSASSLYSGVPSRFSGSRSGTDFTLTISSLQPEDFATYYCQQSYWLITFGQGTKVEIKRTVAAPSVFIFPPSDSQLKSGTASVVCLLNNFYPREAKVQWKVDNALQSGNSQESVTEQDSKDSTYSLSSTLTLSKADYEKHKVYACEVTHQGLSSPVTKSFNRGECGGSDYKDDDDK
notes: From library F. Purified Fab in most assays
In general, EC50 (read off the curve) refers to the concentration needed to bring the measured effect to its halfway point. High values mean a less potent agent, low ones a more potent agent. As a reminder, the EC50 is the concentration needed to bring the measured effect to its halfway point. Low readings indicate greater potency, high ones weaker potency. One may read the Kd as the constant that tells how readily two partners part at equilibrium. As a reminder, the koff is the first-order rate constant of dissociation. What is called kon is the rate constant with which the complex forms. Turning to B2, the binding result in [2] is recorded as “no binding”; in [3] it was “no binding”; in assay [4], “no binding”; in assay [15], “no binding”; in [16] it was “no binding”; in assay [17], “no binding (tested: 200 nM)”. Further, the “fold change of EC50 against EGFR” value in assay [5] and in assay [6] was under 3 fold throughout. Also, the “EC50 (read off the curve)” value in assay [7] is about 0.6 nM; in [8] it was about 0.6 nM; in assay [13], about 3 nM. For the same molecule, the EC50 stood at 0.6 nM in assay [9], 1.4 nM in assay [11] and 1.4 nM in assay [12]. The “fold faster off-rate than Fab 8708” value in assay [10] worked out at 3 fold. Moreover, the “fold faster on-rate than Fab 8708” value in [10] came out at 18 fold. The Kd in assay [14] came out at 1.4 nM. Besides, in [14], the koff came to 0.00017 s⁻¹. Besides, the kon in [14] stood at 130000 M⁻¹ s⁻¹.

B3: Fab 8708 (Fab DL06 AM SR02) (Fab)
heavy: EVQLVESGGGLVQPGGSLRLSCAASGFNISSSSIHWVRQAPGKGLEWVAYISSYYSSTYYADSVKGRFTISADTSKNTAYLQMNSLRAEDTAVYYCARTYCPPLMRYNPTTYQMDVNPEAQYSFGATCGWAMDYWGQGTLVTVSSASTKGPSVFPLAPSSKSTSGGTAALGCLVKDYFPEPVTVSWNSGALTSGVHTFPAVLQSSGLYSLSSVVTVPSSSLGTQTYICNVNHKPSNTKVDKKVEPKSCDKTHT
light: DIQMTQSPSSLSASVGDRVTITCRASQSVSSAVAWYQQKPGKAPKLLIYSASSLYSGVPSRFSGSRSGTDFTLTISSLQPEDFATYYCQQWSYYPITFGQGTKVEIKRTVAAPSVFIFPPSDSQLKSGTASVVCLLNNFYPREAKVQWKVDNALQSGNSQESVTEQDSKDSTYSLSSTLTLSKADYEKHKVYACEVTHQGLSSPVTKSFNRGECGGSDYKDDDDK
notes: Purified Fab in most assays; also called DL06 SR02; Fab DL06 SR02
By IC50 is commonly meant the concentration that gives 50% inhibition. With B3, the binding result is reported as “no binding” in assay [2]; “no binding” in assay [3]; “no binding” in assay [4]; “no binding” in [15]; “no binding” in assay [16]; “no binding (tested: 200 nM)” in [17]. In addition, the “fold change of EC50 against EGFR” value in [5] and in assay [6] was under 3 fold each time. Besides, the “EC50 (read off the curve)” value in assay [7] and in assay [8] was about 6 nM throughout. Besides, the EC50 turned out to be 8.2 nM in assay [9], 23 nM in assay [11] and 21 nM in assay [12]. Besides, the “fold enhancement in affinity against parent Fab DL06” value in assay [18] was 7 fold. For the same molecule, the Kd in assay [14] turned out to be 6.8 nM. The koff in assay [14] amounted to 5.6e-05 s⁻¹. For the same molecule, in [14], the kon came out at 7000 M⁻¹ s⁻¹. In addition, the 50% inhibitory concentration (IC50) in assay [19] is about 30 nM.

B4: Fab DL06 AM Clone 23 (Fab)
heavy: EVQLVESGGGLVQPGGSLRLSCAASGFNISSSSIHWVRQAPGKGLEWVAYISSYYSSTYYADSVKGRFTISADTSKNTAYLQMNSLRAEDTAVYYCARTFCPPIMLFNATSFELDIDAEAKFSFASTCGWAMDYWGQGTLVTVSSASTKGPSVFPLAPSSKSTSGGTAALGCLVKDYFPEPVTVSWNSGALTSGVHTFPAVLQSSGLYSLSSVVTVPSSSLGTQTYICNVNHKPSNTKVDKKVEPKSCDKTHT
light: B3 light
notes: Purified Fab
In the case of B4, in assay [20], the binding result is “binds”.

B5: Fab DL06 AM Clone 24 (Fab)
heavy: B4 heavy with I104L, A109P, S111T, E113Q, D115E, D117N, F122Y
light: B3 light
notes: Purified Fab
Turning to B5, the binding result in assay [21] is “binds”.
